According to article PMC8532503 (Science (New York, N.Y.), 2021):

Target: Full-length ectodomain of human LRP1 (LRP1-ECD) (human, UniProt Q07954-1 20-4414)
Assay: SEC

Full-length ectodomain of human LRP1 (LRP1-ECD), sequence (Q07954 20-4414): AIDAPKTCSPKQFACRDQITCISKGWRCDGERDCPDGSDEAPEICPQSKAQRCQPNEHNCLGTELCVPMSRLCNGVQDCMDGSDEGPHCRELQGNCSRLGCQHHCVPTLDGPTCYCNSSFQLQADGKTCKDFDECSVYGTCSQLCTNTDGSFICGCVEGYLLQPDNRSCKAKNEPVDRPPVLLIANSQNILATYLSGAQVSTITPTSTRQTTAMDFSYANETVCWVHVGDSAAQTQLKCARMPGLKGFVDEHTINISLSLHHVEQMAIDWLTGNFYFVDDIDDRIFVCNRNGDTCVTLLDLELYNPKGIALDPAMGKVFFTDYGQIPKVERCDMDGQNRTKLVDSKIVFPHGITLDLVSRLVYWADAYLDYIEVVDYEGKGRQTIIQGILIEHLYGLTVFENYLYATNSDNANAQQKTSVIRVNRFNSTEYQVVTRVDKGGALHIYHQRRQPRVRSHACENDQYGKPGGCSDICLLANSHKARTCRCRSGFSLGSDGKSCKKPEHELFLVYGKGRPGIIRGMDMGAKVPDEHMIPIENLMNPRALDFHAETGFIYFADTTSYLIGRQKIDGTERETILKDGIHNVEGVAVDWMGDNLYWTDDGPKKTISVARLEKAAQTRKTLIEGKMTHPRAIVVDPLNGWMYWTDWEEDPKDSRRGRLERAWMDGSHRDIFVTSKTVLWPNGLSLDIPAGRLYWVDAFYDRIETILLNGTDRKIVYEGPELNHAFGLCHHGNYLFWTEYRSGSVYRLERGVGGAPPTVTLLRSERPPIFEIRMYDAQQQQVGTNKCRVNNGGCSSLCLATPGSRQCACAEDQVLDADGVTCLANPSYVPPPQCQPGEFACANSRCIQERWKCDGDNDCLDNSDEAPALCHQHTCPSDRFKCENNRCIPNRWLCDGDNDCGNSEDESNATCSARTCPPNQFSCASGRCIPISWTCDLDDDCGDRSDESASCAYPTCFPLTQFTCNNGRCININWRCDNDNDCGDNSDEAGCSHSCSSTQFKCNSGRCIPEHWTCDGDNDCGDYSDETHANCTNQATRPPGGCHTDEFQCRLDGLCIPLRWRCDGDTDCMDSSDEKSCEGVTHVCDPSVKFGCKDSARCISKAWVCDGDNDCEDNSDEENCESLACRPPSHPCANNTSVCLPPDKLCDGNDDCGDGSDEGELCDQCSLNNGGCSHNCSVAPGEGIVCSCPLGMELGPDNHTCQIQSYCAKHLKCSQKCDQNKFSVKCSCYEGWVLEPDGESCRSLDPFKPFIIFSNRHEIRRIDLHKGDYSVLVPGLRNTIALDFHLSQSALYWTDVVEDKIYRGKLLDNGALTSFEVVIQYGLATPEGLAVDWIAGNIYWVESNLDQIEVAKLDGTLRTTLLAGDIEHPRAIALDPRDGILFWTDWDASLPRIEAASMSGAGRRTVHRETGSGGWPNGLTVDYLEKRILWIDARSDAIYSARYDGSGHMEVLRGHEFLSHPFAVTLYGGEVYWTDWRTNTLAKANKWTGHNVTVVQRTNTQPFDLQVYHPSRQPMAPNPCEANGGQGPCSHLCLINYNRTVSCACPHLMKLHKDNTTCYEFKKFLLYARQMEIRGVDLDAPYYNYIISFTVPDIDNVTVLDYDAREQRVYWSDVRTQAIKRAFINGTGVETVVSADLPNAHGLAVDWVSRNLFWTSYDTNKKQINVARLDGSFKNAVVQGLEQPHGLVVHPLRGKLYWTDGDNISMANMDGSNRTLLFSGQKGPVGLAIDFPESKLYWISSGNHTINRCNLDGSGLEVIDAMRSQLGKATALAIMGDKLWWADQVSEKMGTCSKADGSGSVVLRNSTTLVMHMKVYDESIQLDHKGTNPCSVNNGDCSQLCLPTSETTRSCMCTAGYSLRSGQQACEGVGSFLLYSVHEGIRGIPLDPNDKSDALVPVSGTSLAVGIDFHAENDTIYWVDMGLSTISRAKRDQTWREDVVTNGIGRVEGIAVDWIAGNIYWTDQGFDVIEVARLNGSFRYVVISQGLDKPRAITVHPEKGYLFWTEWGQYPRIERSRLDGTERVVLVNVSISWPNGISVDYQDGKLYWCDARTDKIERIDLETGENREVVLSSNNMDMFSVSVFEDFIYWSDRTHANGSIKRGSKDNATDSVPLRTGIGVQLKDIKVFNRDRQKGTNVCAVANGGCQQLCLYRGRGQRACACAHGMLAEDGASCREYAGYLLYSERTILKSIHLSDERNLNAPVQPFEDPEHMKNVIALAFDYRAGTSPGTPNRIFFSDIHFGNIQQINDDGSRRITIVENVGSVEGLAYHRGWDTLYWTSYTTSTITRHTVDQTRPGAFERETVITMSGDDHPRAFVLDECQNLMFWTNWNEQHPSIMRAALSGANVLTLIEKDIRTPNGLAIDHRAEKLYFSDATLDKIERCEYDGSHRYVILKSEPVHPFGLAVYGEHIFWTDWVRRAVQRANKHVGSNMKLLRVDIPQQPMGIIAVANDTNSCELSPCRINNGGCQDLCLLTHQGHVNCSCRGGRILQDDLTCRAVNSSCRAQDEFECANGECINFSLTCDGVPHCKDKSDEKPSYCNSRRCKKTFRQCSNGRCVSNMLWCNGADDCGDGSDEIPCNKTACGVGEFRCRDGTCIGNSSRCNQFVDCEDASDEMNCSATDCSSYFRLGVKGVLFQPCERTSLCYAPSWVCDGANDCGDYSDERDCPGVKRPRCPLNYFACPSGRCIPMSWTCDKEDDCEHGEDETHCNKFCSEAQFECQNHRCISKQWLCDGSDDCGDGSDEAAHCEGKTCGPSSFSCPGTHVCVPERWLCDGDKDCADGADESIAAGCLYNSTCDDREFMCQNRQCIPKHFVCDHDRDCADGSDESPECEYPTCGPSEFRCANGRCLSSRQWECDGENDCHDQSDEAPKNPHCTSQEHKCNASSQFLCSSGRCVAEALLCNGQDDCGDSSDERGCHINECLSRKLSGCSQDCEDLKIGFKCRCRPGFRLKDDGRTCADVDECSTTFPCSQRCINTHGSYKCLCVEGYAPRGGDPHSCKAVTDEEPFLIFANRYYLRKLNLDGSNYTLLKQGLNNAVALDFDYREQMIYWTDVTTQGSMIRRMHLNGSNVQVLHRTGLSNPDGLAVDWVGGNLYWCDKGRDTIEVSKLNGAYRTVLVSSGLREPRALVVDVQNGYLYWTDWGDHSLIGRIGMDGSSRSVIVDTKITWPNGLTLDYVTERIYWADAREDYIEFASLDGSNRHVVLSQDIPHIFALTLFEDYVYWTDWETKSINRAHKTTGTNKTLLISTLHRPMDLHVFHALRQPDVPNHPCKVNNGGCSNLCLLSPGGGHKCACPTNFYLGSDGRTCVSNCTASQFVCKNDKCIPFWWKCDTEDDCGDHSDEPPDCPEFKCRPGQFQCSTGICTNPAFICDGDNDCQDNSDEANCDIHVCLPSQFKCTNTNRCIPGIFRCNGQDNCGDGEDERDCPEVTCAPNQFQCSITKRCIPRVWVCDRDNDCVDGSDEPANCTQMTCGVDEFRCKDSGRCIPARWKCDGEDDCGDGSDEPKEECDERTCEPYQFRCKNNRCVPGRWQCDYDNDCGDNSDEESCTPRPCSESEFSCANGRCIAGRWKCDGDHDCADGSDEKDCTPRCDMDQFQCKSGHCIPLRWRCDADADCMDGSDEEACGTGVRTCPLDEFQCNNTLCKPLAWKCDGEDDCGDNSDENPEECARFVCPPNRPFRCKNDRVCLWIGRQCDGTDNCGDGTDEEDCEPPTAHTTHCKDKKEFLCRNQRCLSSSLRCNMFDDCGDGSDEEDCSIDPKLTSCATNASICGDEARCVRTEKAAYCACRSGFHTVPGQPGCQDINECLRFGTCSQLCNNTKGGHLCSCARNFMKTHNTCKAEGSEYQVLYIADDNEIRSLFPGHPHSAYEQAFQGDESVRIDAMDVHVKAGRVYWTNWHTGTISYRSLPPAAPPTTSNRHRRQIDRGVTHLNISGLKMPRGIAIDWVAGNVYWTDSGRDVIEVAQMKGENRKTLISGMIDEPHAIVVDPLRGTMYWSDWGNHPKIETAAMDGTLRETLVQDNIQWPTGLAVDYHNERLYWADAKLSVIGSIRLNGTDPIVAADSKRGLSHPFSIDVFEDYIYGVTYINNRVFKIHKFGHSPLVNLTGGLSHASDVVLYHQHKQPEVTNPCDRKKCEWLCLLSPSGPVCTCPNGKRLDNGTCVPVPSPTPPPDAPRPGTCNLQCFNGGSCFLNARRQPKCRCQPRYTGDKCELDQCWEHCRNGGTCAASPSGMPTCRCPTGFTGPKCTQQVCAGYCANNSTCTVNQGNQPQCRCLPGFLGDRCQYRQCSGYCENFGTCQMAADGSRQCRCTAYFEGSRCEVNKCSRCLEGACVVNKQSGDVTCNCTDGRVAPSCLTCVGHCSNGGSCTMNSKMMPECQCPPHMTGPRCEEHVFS

binding result: binds
B1: Recombinant mouse SAA1 (purified SAA1, tag state not stated) (natural protein, UniProt P05366 20-122, looked up)
chain: GFFSFVHEAFQGAGDMWRAYTDMKEANWKNSDKYFHARGNYDAAQRGPGGVWAAEKISDGREAFQEFFGRGHEDTIADQEANRHGRSGKDPNYYRPPGLPDKY
